Test system: human keratinocyte culture
Experiment: Filopodia formation in human keratinocyte culture (rhodamine-phalloidin staining, fluorescence microscopy)
Format: cell-based
Details: human keratinocytes
Description: Table 2 indicates the intensity of filopodia formation (number and surface area) in vitro in four keratinocyte cultures under four operating conditions, after treatment with: • a solvent, • HB-EGF (heparin-binding epidermal growth factor), • Picrorhiza kurroa extract obtained without hydrolysis, and • Picrorhiza kurroa extract obtained following hydrolysis.
The test is performed using a human keratinocyte culture divided into four batches. Cells are treated for 1 h with the products to be tested, fixed in 4% formalin, and then stained with rhodamine-conjugated α-phalloidin (α-phalloidin has high affinity for actin filaments, and its conjugation to rhodamine makes actin filaments fluorescent [540 nm; 565 nm]). The cell morphology is then analyzed under a fluorescence microscope (FIG. 2). • A, solvent, negative (no stimulation); • B, HB-EGF (heparin-binding epidermal growth factor), reference epidermal trophic factor, 5 ng/ml; • C, Picrorhiza kurroa extract obtained without hydrolysis, 100 μg/ml; • D, Picrorhiza kurroa extract obtained following hydrolysis, 100 μg/ml.

B1: HB-EGF: heparin-binding epidermal growth factor, reference epidermal trophic factor, positive control (protein, UniProt Q99075 63-148, looked up)
Heparin-binding EGF-like …: DLQEADLDLLRVTLSSKPQALATPNKEEHGKRKKKGKGLGKKRDPCLRKYKDFCIHGECKYVKELRAPSCICHPGYHGERCHGLSL
Visual evaluation of the production of filopodia (scale from 0 to 3) (5 ng/ml, 1 h treatment): 3
Intensity of filopodia formation (effect in words) (HB-EGF 5 ng/ml, extracts 100 μg/ml, 1 h): intense effect

From US20260158095A1, “PLANT EXTRACT AND USE THEREOF IN TOPICAL COMPOSITIONS” (TERM HELVET SA, priority 2021, published 2026)
